Columns and labels:
[1] = system: K4 kissing-loop RNA reporter; assay: apparent KD of K4 kissing-loop reporter; higher = weaker reporter binding; conditions: Eterna round: R107;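 also: bound reporter read as fluorescence of individual clusters on recovered sequencing chips by microscopy, with normalized cluster intensities fitted with a binding model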
Method: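 RNA-MaP round R107: designed RNA switches with theophylline, tryptophan, arginine or FMN aptamers are transcribed on-chip within common flanks. They are titrated with a labelled K4 kissing-loop RNA reporter in RNA-MaP buffer (100 mM Tris pH 7.5, 80 mM KCl, 4 mM MgCl2), without ligand or with the indicated ligand. Median apparent KD per design.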

[2] = system: MS2 coat protein; assay: apparent KD of MS2 coat protein; designed switch direction (-1 OFF switch, 1 ON switch): -1; higher = weaker reporter binding
Summary of the method: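 Normalised cluster fluorescence was curve-fitted, and each design's median over clusters is its apparent KD. Before this, SNAP-549-labelled MS2 coat protein was titrated from 0.7 or 1.5 nM, doubling to 3 µM, over RNA switches transcribed on Illumina chips by stalled E. coli RNA polymerase. Titrations had no input, 200 uM small-molecule ligand, or an oligonucleotide input, and steps lasted 0.8–1.5 h (lowest) to 10–20 min (highest).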

[3] = input ligand: theophylline 20 uM
[4] = input ligand: tryptophan 2.4 mM
[5] = Eterna round: R95, input ligand: microRNA oligo, concentration not stated
[6] = Eterna round: R95, input ligand: FMN 200 uM
[7] = Eterna round: R95, input ligand: none

Sequence | apparent KD of K4 kissing-loop reporter ([1]; input ligand: FMN 200 uM) | apparent KD of K4 kissing-loop reporter ([1]; input ligand: arginine 13.2 mM) | apparent KD of K4 kissing-loop reporter ([1]; input ligand: none) | apparent KD of K4 kissing-loop reporter [1, 3] | apparent KD of K4 kissing-loop reporter [1, 4] | apparent KD of MS2 coat protein [2, 5] | other results
AAAUAAGCUCAUGAUACCAGCCAGUGAUGUUGGUUGGUCCACCGUGUCCGAACAUUAAGCGGCCCUUGGCAGCAUGAUGCGCGUA [Xearxea] | 125 nM | 98.5 nM | 90.1 nM | 119 nM | 118 nM | – | –
AAAUAGAUCAGUCAUCCAGUGAUGUUGGAAGGAGCGUGCGAAAGCACAGGUAGGUCGCCAGAAUAAAAGUGGCUGAUCAAAAUAA | 273 nM | 318 nM | 322 nM | 467 nM | 178 nM | – | –
AAAUAUAGUGAUGUUAUAUAUAUAUGUGAUACCAGAGAAAGAAAACUCCCUUGGCAGCACGAGAGAGAAUUUUUUUUUUAUAUAU [AstrosSSTheA#1] | 362 nM | 398 nM | 552 nM | 414 nM | 245 nM | – | –
AAAUAUUCGAGUGAUGUUCGAUAAAUUUCAGAGGAUAUGCUUAAAAGCAGAAGGCUGUAUUUCUAUUUGUUAUUAAAUUUUAUAA [JR_ExcFMNA_Sub002] | 90.3 nM | 107 nM | 91.1 nM | 111 nM | 76.9 nM | – | –
AAAUUUAAUAUAUUUAAAUAAAUAUGUGAUACCAGACAUUUAUAAGUCCCUUGGCAGCACAAUGCAGUGAUGUUGCUUAUAAUAA [JR_SSTheophyA_Sub017] | 85.6 nM | 114 nM | 88.8 nM | 192 nM | 73.5 nM | – | –
AAAUUUAAUAUAUUUAAUUAAUUAAGUGAUACCAGACAUUAAUAAGUCCCUUGGCAGCACAAUGCAGUGAUGUUGCUUAUAAUAA [JR_SSTheophyA_Sub009] | 129 nM | 120 nM | 76.6 nM | 169 nM | 76.3 nM | – | –
AACAACUUGUUUGUCGGGUGUUCGCGCGAUACCAGCCGAAUGGAUGGCCCUUGGCAGCGCAGCGAGUGAUGUUCGCCCGCUUGAC [Exclusion Theophylline A GF 24] | 611 nM | 422 nM | 552 nM | 529 nM | 583 nM | – | –
AACACUCACGGAGUGAUGUUCUGGAAUAAACGAGGACCGGUACGGCCGCCACUCGAAAAUGAGUGAGUCCUACGAAAAGUAGGAC [Omei inspired 4] | 357 nM | 394 nM | 361 nM | 405 nM | 108 nM | – | –
AACCUUGUAGUGAUGUUGCAAGGCGCUGAUACCAGUCACAGCCACGACCCUUGGCAGCAGUGGCGUUCAUGAUAAAAUAGAUUAA [theeternabot_sameState_KL_Theo_A_49] | 42 nM | 41.5 nM | 41.4 nM | 37 nM | 39.9 nM | – | –
AACGUGGCCAAAGGAUAUCUCCCUACGUCGUUGCAUCUACCUCUGUUUGCUCUGAGUGAUGUUUGGAGAGAAGGUUGAGGCGAUU [theeternabot_exclusion_KL_FMN_B_29] | 532 nM | 317 nM | 442 nM | 513 nM | 387 nM | – | –
UUUUACGCAGGAUAUACAUUUUUUUUAUUAUCCUCAUUAUUACAUGAGGAUCACCCAUGUAGAAGGGCGAUUUU [My Design] (puzzle: Exclusion 2) | – | – | – | – | – | 38.8 nM | –
UUUUAGAGAGGAUAUAUAUUGUGAAACAUGAGGAUCACCCAUGUAAUAAUAUGGAUGUAAAUAGAAGGCUCAUUUA [JL-ex5-3.03] (puzzle: Exclusion 5) | – | – | – | – | – | 44.6 nM | apparent KD of MS2 coat protein [2, 6]: 37.5 nM; apparent KD of MS2 coat protein [2, 7]: 42.7 nM
UUUUAGAGAGGAUAUAUUAUGUGAAACAUGAGGAUCACCCAUGUAAUAUAAUGGAUGUAAAUAGAAGGCUCAUUUA [Mat - Exclusion 5 - JL mod - D22] (puzzle: Exclusion 5) | – | – | – | – | – | 28.4 nM | apparent KD of MS2 coat protein [2, 6]: 28.4 nM; apparent KD of MS2 coat protein [2, 7]: 41.1 nM
UUUUAGCAAGCGAGAUCCCACAUGAGGAUCACCCAUGUGCAUCCAGAAUUACUGGGUGCAAAAGCUCGUCUUAUAUA [Winner reversed engineered] (Eterna round: R97, puzzle: Sensor, turn-off variant 1) | – | – | – | – | – | – | apparent KD of MS2 coat protein ([2]; input ligand: FMN 200 uM): 54.9 nM; apparent KD of MS2 coat protein ([2]; input ligand: none): 50.1 nM
UUUUAGUCAGGAUAUACAUGAGGAUCACCCAUGUAAAAUUUUAAUUUAAUUUUAAGGUGUAGAAGGGACAACCC [Ex3 #13] (Eterna round: R97, puzzle: Exclusion 3) | – | – | – | – | – | – | apparent KD of MS2 coat protein ([2]; input ligand: FMN 200 uM): 26.6 nM; apparent KD of MS2 coat protein ([2]; input ligand: none): 32.6 nM
UUUUCUUUUGUGAGGAUAUACUUGUUUUUUUUUUUGUAGAAGGCACAUGAGGAUCACCCAUGUACUCUUUCCUG [JR_BME4_Sub024] (puzzle: Brourd's mod of Exclusion 4) | – | – | – | – | – | 20.1 nM | –
UUUUGCACGCUGCGGUCCUACAUGAGGAUCACCCAUGUGGUCUGGUGGCGUGGGUCGCCGGACUUGGCUCGUCUUGG [salish99_S_TOV1_R5_035] (Eterna round: R97, puzzle: Sensor, turn-off variant 1) | – | – | – | – | – | – | apparent KD of MS2 coat protein ([2]; input ligand: FMN 200 uM): 15.5 nM; apparent KD of MS2 coat protein ([2]; input ligand: none): 14.9 nM
UUUUGUUCAGGAUAUGUAGAAUUUAACAUGAGGAUCACCCAUGUAGAUCCUGAAUAAACUACAGAAGGGAACAUUU [Mat - Exclusion 5 - Eli Mod - D15] (Eterna round: R97, puzzle: Exclusion 5) | – | – | – | – | – | – | apparent KD of MS2 coat protein ([2]; input ligand: FMN 200 uM): 215 nM; apparent KD of MS2 coat protein ([2]; input ligand: none): 27.4 nM
UUUUUCGUUUAAGCUUCGUACAUGAGGAUCACCCAUGUUUUUAGUUCUGUGUUGGUCAGUAUGGAAGUUCGUCUUAU [JR_SV3TOV1_Sub089] (puzzle: Sensor v3, turn-off variant 1) | – | – | – | – | – | 166 nM | apparent KD of MS2 coat protein [2, 6]: 325 nM; apparent KD of MS2 coat protein [2, 7]: 371 nM
UUUUUCUCAGGAUAUACAUGAGGAUCACCCAUGUAUAUUAAUGAUAAUACAUGGGAAUGUAGAAGGGAGCUCAU [Omei Ex3 Pseudoloop 13] (Eterna round: R97, puzzle: Exclusion 3) | – | – | – | – | – | – | apparent KD of MS2 coat protein ([2]; input ligand: FMN 200 uM): 111 nM; apparent KD of MS2 coat protein ([2]; input ligand: none): 135 nM
UUUUUGAUAGGAUAUACAUGAGGAUCACCCAUGUGUGACAGGACUGACGCUCUUCAUCGUAGAAGGAUCCGAGC [Eternabot (L1) Solution 97] (Eterna round: R97, puzzle: Exclusion 3) | – | – | – | – | – | – | apparent KD of MS2 coat protein ([2]; input ligand: FMN 200 uM): 27.4 nM; apparent KD of MS2 coat protein ([2]; input ligand: none): 30.9 nM
UUUUUGUGAGGAUAUCAGUAGUAGAACAAUAGUACUACUACUGAGAAGGCACAUGAGGAUCACCCAUGUUCCUU [Fiskers Ex 4 Super stable 44 mod 12] (puzzle: Exclusion 4) | – | – | – | – | – | 14.9 nM | –
UUUUUUGUAGUGAGGAUAUCGUUGUGGAUGUGGAUCGAGAAGGCACAUGAGGAUCACCCAUGUUAGUUGUGGUU [JR_BMOE4_Sub084] (puzzle: Brourd's mod of Exclusion 4) | – | – | – | – | – | 188 nM | –
